Consider ten molecules from US20260265385A1 (ANAPTYSBIO, published 2026).

The target of test [1] is T1, human IL-2Rβ (CD122), full-length, on cells (human, UniProt P14784 27-551).
T1 construct: whole, on cells; also called human IL-2Rβγ; human IL-2βγ
T1 sequence (looked up): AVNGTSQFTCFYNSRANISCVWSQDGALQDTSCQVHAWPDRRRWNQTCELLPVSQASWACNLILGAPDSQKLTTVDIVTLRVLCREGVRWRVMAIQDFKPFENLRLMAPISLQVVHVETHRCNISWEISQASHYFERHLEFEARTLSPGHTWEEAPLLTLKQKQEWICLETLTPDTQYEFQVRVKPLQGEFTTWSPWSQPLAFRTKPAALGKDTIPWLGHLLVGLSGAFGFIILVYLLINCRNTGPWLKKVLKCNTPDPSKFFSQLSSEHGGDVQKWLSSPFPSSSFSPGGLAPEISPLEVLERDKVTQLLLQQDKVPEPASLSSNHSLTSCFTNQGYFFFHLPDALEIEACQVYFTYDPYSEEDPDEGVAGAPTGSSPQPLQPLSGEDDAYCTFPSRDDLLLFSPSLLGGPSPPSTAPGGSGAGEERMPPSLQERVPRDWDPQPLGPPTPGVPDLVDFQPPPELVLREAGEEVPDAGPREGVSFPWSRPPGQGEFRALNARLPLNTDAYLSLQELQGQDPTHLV
Kind of test: flow cytometry competition: antibody titrated against recombinant IL-2 (5 nM) binding to HEK293 cells expressing human IL-2Rβ and IL-2Rγ. As for the experimental part: (§1) HEK293 cells stably transfected with human IL-2Rβ and IL-2Rγ were plated at 100,000 cells/well in a 96 well plate. Antibodies were titrated at the concentrations indicated in FIG. 8 starting at 100 nM and diluted 1:3, and added to the cells. Recombinant IL-2 (5 nM) or recombinant IL-15 (2 nM) were also added to the cells. Cells were incubated for 30 minutes on a plate shaker at 4° C. Cells were washed and then analyzed on a flow cytometer, and data were analyzed using Novoexpress and GraphPad Prism software.
In general terms: In flow cytometry, cells or beads pass a laser one at a time.

In test [2] the target is T1, human IL-2Rβ (CD122), full-length, on …. The test is described as follows: flow cytometry competition: antibody titrated against recombinant IL-15 (2 nM) binding to HEK293 cells expressing human IL-2Rβ and IL-2Rγ. The method, then:
as §1

In test [3] the target is T2, recombinant cynomolgus IL-2Rβ (extracellular domain, Ala1-Thr215) (cynomolgus, UniProt Q38J85 27-240).
T2 construct: extracellular domain; Analyte in SPR; also called cynomolgus LL-2Rβ; Cyno IL-2RB
T2 sequence (looked up): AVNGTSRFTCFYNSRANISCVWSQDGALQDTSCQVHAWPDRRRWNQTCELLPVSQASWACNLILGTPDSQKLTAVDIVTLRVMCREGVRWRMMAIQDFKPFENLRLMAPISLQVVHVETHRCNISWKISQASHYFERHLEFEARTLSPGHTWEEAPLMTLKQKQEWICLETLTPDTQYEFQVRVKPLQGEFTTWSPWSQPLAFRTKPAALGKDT
Kind of test: SPR, antibody captured on Protein A chip. Summed up:
(§2)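 Antibodies captured on a Protein A chip (0.5 μg/mL, 60 s), then exposed to IL-2Rβ extracellular domain (Ala1-Thr215) at about 0.4–11 nM; 300 s association, 1200 s dissociation. On- and off-rates and KD from a global 1:1 binding fit.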

The target in test [4] is T3, recombinant human IL-2Rβ (extracellular domain, Ala1-Thr215) (human, UniProt P14784 27-240).
T3 construct: extracellular domain; Analyte in SPR; Ala1-Thr215 is counted on the mature protein; also called human LL-2Rβ; Human IL-2RB
T3 sequence (looked up): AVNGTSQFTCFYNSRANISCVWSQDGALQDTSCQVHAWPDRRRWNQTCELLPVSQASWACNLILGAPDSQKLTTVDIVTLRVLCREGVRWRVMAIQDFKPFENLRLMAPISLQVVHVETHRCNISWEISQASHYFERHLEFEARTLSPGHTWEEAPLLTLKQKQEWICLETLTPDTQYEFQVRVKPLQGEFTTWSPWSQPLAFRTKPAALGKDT
Kind of test: SPR, antibody captured on Protein A chip. In a few lines:
as §2

Test [5] addresses T1, human IL-2Rβ (CD122), full-length, on …. The test is described as follows: flow cytometry on CHO-K1 cells expressing human IL-2Rβ and IL-2Rγ (panel 'Cell Binding human IL-2Rbg CHO'); unit taken from the axis 'Antibody Concentration nM'. The method, then:
(§3) CHO-K1 cells stably expressing either full-length human or cyno IL-2Rβ and IL-2Rγ cultured in the log phase of growth were harvested with Accutase solution, resuspended in FACS buffer, and plated at 100,000 cells/well in a 96 well plate. The concentrations indicated in FIG. 5 of antibodies starting at 100 nM and diluted 1:3 were incubated with the cells for 45 minutes on a plate shaker at4° C. After washing, cells were incubated with goat anti-human kappa DyL650 secondary antibody for 20 minutes on a plate shaker at4° C. Cells were washed again and analyzed on a FACSArray flow cytometer. Data were analyzed using Novoexpress and GraphPad Prism software.

For test [6], the target named is T4, cynomolgus IL-2Rβ (CD122), full-length, on cells (cynomolgus, UniProt Q38J85 27-551).
T4 construct: whole, on cells; Co-expressed with full-length cynomolgus IL-2Rγ on CHO-K1 cells; also called cynomolgus IL-2Rβγ; cyno IL-2βγ
T4 sequence (looked up): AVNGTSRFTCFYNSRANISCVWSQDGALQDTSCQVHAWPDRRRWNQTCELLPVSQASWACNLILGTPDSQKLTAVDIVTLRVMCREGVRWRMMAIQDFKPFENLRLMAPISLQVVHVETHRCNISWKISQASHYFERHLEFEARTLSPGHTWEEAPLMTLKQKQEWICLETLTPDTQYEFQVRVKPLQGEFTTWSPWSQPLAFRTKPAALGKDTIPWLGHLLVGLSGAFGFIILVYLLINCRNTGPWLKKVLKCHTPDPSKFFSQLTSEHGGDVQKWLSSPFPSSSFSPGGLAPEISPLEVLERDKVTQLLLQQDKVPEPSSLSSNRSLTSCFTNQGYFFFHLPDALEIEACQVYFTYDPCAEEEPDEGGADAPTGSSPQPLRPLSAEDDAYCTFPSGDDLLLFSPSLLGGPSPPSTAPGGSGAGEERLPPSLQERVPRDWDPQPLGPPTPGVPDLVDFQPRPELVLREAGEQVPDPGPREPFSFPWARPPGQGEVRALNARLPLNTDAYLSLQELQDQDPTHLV
Kind of test: flow cytometry on CHO-K1 cells expressing cynomolgus IL-2Rβ and IL-2Rγ (panel 'Cell Binding cyno IL-2Rbg CHO'); unit taken from the axis 'Antibody Concentration nM'. As for the experimental part: as §3

B1: APE15295 (antibody)
heavy: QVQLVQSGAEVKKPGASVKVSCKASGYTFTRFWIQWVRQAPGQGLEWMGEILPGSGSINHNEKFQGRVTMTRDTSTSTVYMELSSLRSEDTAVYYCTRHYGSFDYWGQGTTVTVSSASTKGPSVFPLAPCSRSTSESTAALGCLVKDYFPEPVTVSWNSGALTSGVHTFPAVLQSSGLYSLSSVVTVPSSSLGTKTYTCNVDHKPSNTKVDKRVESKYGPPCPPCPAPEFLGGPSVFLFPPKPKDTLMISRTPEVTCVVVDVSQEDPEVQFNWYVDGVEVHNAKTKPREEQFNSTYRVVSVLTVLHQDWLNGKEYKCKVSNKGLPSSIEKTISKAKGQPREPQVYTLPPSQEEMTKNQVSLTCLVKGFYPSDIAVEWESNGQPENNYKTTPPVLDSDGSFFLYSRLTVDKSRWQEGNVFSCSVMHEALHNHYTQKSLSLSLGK
light: DIQMTQSPSSLSASVGDRVTITCKASQNVGTDVAWYQQKPGKAPKSLIYSASYRYSGVPSRFSGSGSGTDFTLTISSLQPEDFATYFCHQYESYPFTFGQGTKLEIKRTVAAPSVFIFPPSDEQLKSGTASVVCLLNNFYPREAKVQWKVDNALQSGNSQESVTEQDSKDSTYSLSSTLTLSKADYEKHKVYACEVTHQGLSSPVTKSFNRGEC
notes: M6-p1625 series
The Kd is the constant that tells how readily two partners part at equilibrium. B1: the “IC50 (read off the curve)” value in test [1] was ~0.08 nM; in test [2], ~0.05 nM. Besides, the equilibrium dissociation constant (Kd) was 0.0707 nM in test [3] and 0.0557 nM in test [4].

B2: APE15428 (antibody)
heavy: not shown
light: DIQMTQSPSSLSASVGDRVTITCKASQNVGTDVAWYQQKPGKAPKSLIYSASYRYSGVPSRFSGSGSGTDFTLTISSLQPEDFATYFCHQYESYPFTFGQGTKLEIKRTVAAPSVFIFPPSDEQLKSGTASVVCLLNNFYPREAKVQWKVDNALQSGNSQESVTEQDSKDSTYSLSSTLTLSKADYEKHKVYACEVTHQGLSSPVTKSFNRGEC
notes: M6-p1625 series
As to B2, the Kd in test [3] worked out at 0.0765 nM; in test [4], 0.0567 nM.

B3: APE15170 (antibody)
heavy: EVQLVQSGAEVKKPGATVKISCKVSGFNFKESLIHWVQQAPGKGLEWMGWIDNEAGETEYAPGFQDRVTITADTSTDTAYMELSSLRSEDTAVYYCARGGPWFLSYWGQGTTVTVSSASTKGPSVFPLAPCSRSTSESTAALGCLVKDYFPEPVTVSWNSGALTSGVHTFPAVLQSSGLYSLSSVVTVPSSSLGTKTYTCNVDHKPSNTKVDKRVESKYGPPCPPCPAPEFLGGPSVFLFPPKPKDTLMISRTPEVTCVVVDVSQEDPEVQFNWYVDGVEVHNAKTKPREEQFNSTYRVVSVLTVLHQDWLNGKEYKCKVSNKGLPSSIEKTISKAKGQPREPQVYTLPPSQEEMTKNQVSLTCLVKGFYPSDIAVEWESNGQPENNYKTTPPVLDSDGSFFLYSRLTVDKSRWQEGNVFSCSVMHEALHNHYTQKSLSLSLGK
light: EIVMTQSPATLSVSPGERATLSCRASQIISNNLHWYQQKPGQAPRLLIIYGLQSISGIPARFSGSRSGTEFTLTISSLQSEDFAVYFCQQSNNFPWTFGQGTKLEIKRTVAAPSVFIFPPSDEQLKSGTASVVCLLNNFYPREAKVQWKVDNALQSGNSQESVTEQDSKDSTYSLSSTLTLSKADYEKHKVYACEVTHQGLSSPVTKSFNRGEC
notes: M10-1275 series
As usually defined, the EC50 is the concentration giving half of the maximal effect. A higher EC50 goes with weaker potency. For B3, the “IC50 (read off the curve)” value in test [1] and in test [2] was ~0.4 nM throughout. Also, the figures for the EC50 in test [5] and in test [6] were 0.139 nM and 0.146 nM, respectively. The Kd was 0.00487 nM in test [3] and 0.0128 nM in test [4].

B4: APE15446 (antibody)
heavy: not shown
light: EIVMTQSPATLSVSPGERATLSCRASQIISNNLHWYQQKPGQAPRLLIIYGLQSISGIPARFSGSRSGTEFTLTISSLQSEDFAVYFCQQSNNFPWTFGQGTKLEIKRTVAAPSVFIFPPSDEQLKSGTASVVCLLNNFYPREAKVQWKVDNALQSGNSQESVTEQDSKDSTYSLSSTLTLSKADYEKHKVYACEVTHQGLSSPVTKSFNRGEC
notes: M10-1275 series
For the molecule B4, the Kd in test [3] is 0.00415 nM; in test [4], 0.0107 nM.

B5: APE15142 (antibody, V domains shown)
VH: EVQLVQSGAEVKKPGATVKISCKVSGFNFKYSLIHWVQQAPGKGLEWMGWIDNEAGETEYAPGFQDRVTITADTSTDTAYMELSSLRSEDTAVYYCARGGPWFLSYWGQGTTVTVSS
VL: EIVMTQSPATLSVSPGERATLSCRASQIISNNLHWYQQKPGQAPRLLIIYGLQSISGIPARFSGSRSGTEFTLTISSLQSEDFAVYYCQQSNNWPWTFGQGTKLEIKR
notes: M10-1275 series
Regarding B5, the EC50 came out at 0.147 nM in test [5] and 0.163 nM in test [6]. The Kd was 0.0105 nM in test [3] and 0.0222 nM in test [4].

B6: APE15140 (antibody, V domains shown)
VH: EVQLVQSGAEVKKPGATVKISCKVSGFNFKESLIHWVQQAPGKGLEWMGWIDNEAGETEYAPGFQDRVTITADTSTDTAYMELSSLRSEDTAVYYCARGGPWFLSYWGQGTTVTVSS
VL: EIVMTQSPATLSVSPGERATLSCRASQIISNNLHWYQQKPGQAPRLLIIYGLQSISGIPARFSGSRSGTEFTLTISSLQSEDFAVYYCQQSNNWPWTFGQGTKLEIKR
notes: M10-1275 series
On to B6, for which the results for the EC50 in test [5] and in test [6] were 0.138 nM and 0.18 nM, respectively. Also, the Kd was 0.0102 nM in test [3] and 0.0217 nM in test [4].

B7: APE15169 (antibody, V domains shown)
VH: EVQLVQSGAEVKKPGATVKISCKVSGFNFKESLIHWVQQAPGKGLEWMGWIDNEAGETEYAPGFQDRVTITADTSTDTAYMELSSLRSEDTAVYYCARGGPWFLSYWGQGTTVTVSS
VL: EIVMTQSPATLSVSPGERATLSCRASQIISNNLHWYQQKPGQAPRLLIIYGLQSISGIPARFSGSRSGTEFTLTISSLQSEDFAVYFCQQSNNWPYTFGQGTKLEIKR
notes: M10-1275 series
B7: the EC50 in test [5] is 0.308 nM; in test [6] it was 0.333 nM. Besides, the results for the dissociation constant Kd in test [3] and in test [4] were 0.0144 nM and 0.0995 nM, respectively.

B8: APE15173 (antibody, V domains shown)
VH: EVQLVQSGAEVKKPGATVKISCKVSGFNFKYSLIHWVQQAPGKGLEWMGWIDNEAGETEYAPGFQDRVTITADTSTDTAYMELSSLRSEDTAVYYCARGGPWFLSYWGQGTTVTVSS
VL: EIVMTQSPATLSVSPGERATLSCRASQIISNNLHWYQQKPGQAPRLLIIYGLQSISGIPARFSGSRSGTEFTLTISSLQSEDFAVYFCQQSNNFPWTFGQGTKLEIKR
notes: M10-1275 series
For the molecule B8, the Kd in test [3] came to 0.00509 nM; in test [4] it was 0.0184 nM.

B9: APE15276 (antibody, V domains shown)
VH: EVQLVQSGAEVKKPGATVKISCKVSGFNFKESLIHWVQQAPGKGLEWMGWIDNEAGETEYAPGFQDRVTITADTSTDTAYMELSSLRSEDTAVYYCARSGPWFLSYWGQGTTVTVSS
VL: EIVMTQSPATLSVSPGERATLSCRASQIISNNLHWYQQKPGQAPRLLIIYGLQSISGIPARFSGSRSGTEFTLTISSLQSEDFAVYFCQQSNNFPWTFGQGTKLEIKR
notes: M10-1275 series
In the case of B9, the Kd in test [3] amounted to 0.00599 nM; in test [4], 0.0178 nM.

B10: APE15148 (antibody, V domains shown)
VH: QVQLVQSGAEVKKPGASVKVSCKASGYTFSRYWIQWVRQAPGQGLEWMGEILPGSGSINHNEKFQGRVTMTRDTSTSTVYMELSSLRSEDTAVYYCTRHYGSFDYWGQGTTVTVSS
VL: DIQMTQSPSSLSASVGDRVTITCKASQNVGTDVAWYQQKPGKAPKSLIYSASYRYSGVPSRFSGSGSGTDFTLTISSLQPEDFATYFCHQYESYPFTFGQGTKLEIKR
notes: M6-p1625 series
B10: the EC50 stood at 0.105 nM in test [5] and 0.103 nM in test [6]. Moreover, the results for the Kd in test [3] and in test [4] were 0.0715 nM and 0.0945 nM, respectively.
